Test [1] concerns the target T1, full-length VAR2CSA (FV2) recombinant protein, FCR3 (Plasmodium falciparum FCR3, UniProt Q6UDW7, strain).
T1 construct: VAR2CSA (PfEMP1 family), Plasmodium falciparum strain FCR3, full-length recombinant protein; also called FV2-FCR3; source: recombinant, purified, expressed as described in [33]
The test can be described thus: ELISA; recombinant VAR2CSA protein or domain (50 nM in PBS) coated on MaxiSorp plates overnight at 4°C; Nb 50 nM in 1% skim milk in PBS, 90 min RT; detected with rabbit anti-camel and HRP anti-rabbit, OD 490 nm after 20 min. The following applies: both partners purified. Background: An ELISA detects its analyte on a solid surface through an enzyme-linked reagent.

Test [2] deals with T2, VAR2CSA DBL6 domain, baculovirus-produced (Plasmodium falciparum FCR3, UniProt Q6UDW7, strain).
T2 construct: DBL6 domain; also called DBL6ε; source: baculovirus expression system, as described in [11], [20]
Described as above. The conditions noted are these: both partners purified.

Test [3] addresses T3, native VAR2CSA on the surface of NF54 infected erythrocytes (Plasmodium falciparum NF54 (VAR2CSA …, UniProt Q8I639, strain)).
T3 construct: VAR2CSA of the P. falciparum parasite line NF54, native protein on infected erythrocytes; also called VAR2CSA-expressing IE (NF54); source: endogenous, on P. falciparum NF54-infected erythrocytes
Put plainly: flow cytometry on cells; late stage VAR2CSA-expressing IE (FCR3, 7201, NF54) incubated with Nb (0,1 mg/ml), 30 min at 4°C; detected with mouse anti-penta-His and FITC anti-mouse; specific recognition defined by an MFI ratio >1.2. The following applies: one partner purified. Background: In flow cytometry, cells or beads pass a laser one at a time.

For test [4], the target named is T4, VAR2CSA DBL3 domain, baculovirus-produced (Plasmodium falciparum FCR3 (implied), UniProt Q6UDW7, strain).
T4 construct: DBL3 domain; also called DBL3X; source: baculovirus expression system, as described in [11], [20]
The test can be described thus: ELISA; recombinant VAR2CSA protein or domain (50 nM in PBS) coated on MaxiSorp plates overnight at 4°C; Nb 50 nM in 1% skim milk in PBS, 90 min RT; detected with rabbit anti-camel and HRP anti-rabbit, OD 490 nm after 20 min. The conditions noted are these: both partners purified.

The target in test [5] is T5, ID1–ID2a minimal CSA-binding region of VAR2CSA, baculovirus-produced (Plasmodium falciparum FCR3, UniProt Q6UDW7, strain).
T5 construct: VAR2CSA, P. falciparum FCR3; ID1–ID2a region encompassing DBL2X with the flanking parts ID1 and ID2; also called ID1–ID2a (BV); source: baculovirus expression system, as described in [11], [20]
The description is as above. The following applies: both partners purified.

The target of test [6] is T6, ID1–ID2a minimal CSA-binding region of VAR2CSA, produced in E. coli (Plasmodium falciparum FCR3, UniProt Q6UDW7, strain).
T6 construct: ID1–ID2a region; also called ID1–ID2a (coli); source: E. coli
Described as above. The following applies: both partners purified.

For test [7], the target named is T7, ID1–ID2a minimal CSA-binding region of VAR2CSA, produced in Schneider 2 (S2) cells (Plasmodium falciparum FCR3, UniProt Q6UDW7, strain).
T7 construct: ID1–ID2a region; also called ID1–ID2a (S2); source: Schneider 2 (S2) cells
The description is as above. The following applies: both partners purified.

For test [8], the target named is T2, VAR2CSA DBL6 domain, …. The description is as above. The following applies: both partners purified. This is another data set of the same source.
For test [9], the target named is T8, DBL1-ID2a protein of VAR2CSA (containing minimal CSA-binding region), baculovirus-produced (Plasmodium falciparum FCR3 (assumed for …, UniProt Q6UDW7, strain)).
T8 construct: DBL1-ID2a; source: baculovirus-produced
The test can be described thus: far-Western, overlay or dot blot; Western blot: recombinant VAR2CSA domain (0,4 µg/lane) run NON-REDUCED on SDS gel, blotted to nitrocellulose, probed with 50 nM Nb in TBST; rabbit anti-camel and HRP anti-rabbit. The following applies: both partners purified. (In general: Immunoblotting shows a protein as a band on a membrane.)

The target in test [10] is T9, DBL1-ID2a of VAR2CSA of the heterologous 3D7 parasite line (Plasmodium falciparum 3D7, UniProt Q8I639, strain).
T9 construct: VAR2CSA, P. falciparum strain 3D7; also called 3D7 DBL1-ID2a; source: baculovirus expression system
Put plainly: ELISA; recombinant VAR2CSA protein or domain (50 nM in PBS) coated on MaxiSorp plates overnight at 4°C; Nb 50 nM in 1% skim milk in PBS, 90 min RT; detected with rabbit anti-camel and HRP anti-rabbit, OD 490 nm after 20 min. The conditions noted are these: both partners purified.

Test [11] addresses T10, ID1–ID2a of VAR2CSA of the heterologous 3D7 parasite line (Plasmodium falciparum 3D7, UniProt Q8I639, strain).
T10 construct: VAR2CSA, P. falciparum strain 3D7; also called 3D7 ID1–ID2a; source: baculovirus expression system
The description is as above. The following applies: both partners purified.

B1: Nb15 (VHH)
VHH: QVQLQESGGGLVQPGGPLRLSCAASGFTFDNYAMGWFRQAPGKEREFVAAISWSAGTTYYADSVKGRFTISRDNAKNTVSLQMNSLKPEDTAVYYCAAAYDGITMVVEYTNEYEYDYWGQGTQVTVSS
notes: from an alpaca immunized with full-length VAR2CSA; pHEN6c vector; also called Nanobody 15; VHH; source: E. coli WK6, periplasmic extract, purified (HisTrap); not shown: His6, C-terminal, kept
For B1, the binding result is “binds” in [1], “binds” in test [2], “binds” in test [3] and “no binding (tested: 50 nM)” in test [4].

B2: Nb10 (VHH)
VHH: QVQLQESGGGLVQAGGSLRLSCAASGRTFSSNLMGWLRQAPGKEREFVAAMSMSGGDTFYADSVKGRFTISRDNAKNMVHLQMNSLKPEDTAIYYCAAADVRLSAYEYDYWGQGTQVTVSS
notes: from an alpaca immunized with full-length VAR2CSA; pHEN6c vector; also called Nanobody 10; VHH; source: E. coli WK6, periplasmic extract, purified (HisTrap); not shown: His6, C-terminal, kept
Turning to B2, the binding result in [1] is on record as “binds”; in test [5], “binds”; in [3] it was “binds”; in [6] it was “binds”; in test [4], “no binding (tested: 50 nM)”; in [7], “binds”. In addition, the binding result is “no binding (tested: 50 nM)” in test [8] and “binds” in [9].

B3: Nb06 (VHH)
VHH: QVQLQESGGGLVQAGGSLRLSCAASGFTFDDYAIGWFRQAPGKEREGVSCISSSDGVTYYVDSVKGRFTISSDNAKNTVYLQMNSLKPEDTAVYHCAASPDYYCDAGFLNYGIDYWGEGTQVTVSS
notes: from an alpaca immunized with full-length VAR2CSA; pHEN6c vector; also called Nanobody 06; VHH; source: E. coli WK6, periplasmic extract, purified (HisTrap); not shown: His6, C-terminal, kept
Take B3: the binding result in [1] is reported as “binds”; in test [2] it was “binds”; in test [4] it was “no binding (tested: 50 nM)”.

B4: Nb07 (VHH)
VHH: QVQLQESGGGLVQAGGSLRLSCAASGFTFDDYVIGWFRQAPGKEREGVSCISRSDGSTYYADSVKGRFTISSDNAKNTIYLQMNSLKPEDTAVYHCAAAMTHFGLGPGPNEYDYWGQGTQVTVSS
notes: from an alpaca immunized with full-length VAR2CSA; pHEN6c vector; also called Nanobody 07; VHH; source: E. coli WK6, periplasmic extract, purified (HisTrap); not shown: His6, C-terminal, kept
Regarding B4, the binding result in test [1] is reported as “binds”; in test [5] it was “binds”; in [3] it was “binds”; in [6] it was “binds”; in [4], “no binding (tested: 50 nM)”; in [7], “binds”. Further, the binding result in [8] is listed as “no binding (tested: 50 nM)”; in test [9], “binds”.

B5: Nb08 (VHH)
VHH: QVQLQESGGGLVQPGGSLRLSCVTSGFTLDYYNIGWFRQAPGKEREGVSCISISDGSTYYADSVKGRFTISRDNAKNTVYLQMNSLKPEDTAVYYCAIRLDGSSCDPEEYDYWGQGTQVTVSS
notes: from an alpaca immunized with full-length VAR2CSA; pHEN6c vector; also called Nanobody 08; VHH; source: E. coli WK6, periplasmic extract, purified (HisTrap); not shown: His6, C-terminal, kept
As to B5, the binding result in test [1] is “binds”; in [2], “binds”; in [3], “binds”; in test [4] it was “no binding (tested: 50 nM)”.

B6: Nb09 (VHH)
VHH: QVQLQESGGGLVQAGGSLRLSCAASGRTFSNYGMGWFRQTPEKERDLLAAVTWSGGRTYYADSVKGRFTISRDNAKNTVYLQMNSLKPEDTAVYYCAAGELFYSDYGPEGEWDYWGQGTQVTVSS
notes: from an alpaca immunized with full-length VAR2CSA; pHEN6c vector; also called Nanobody 09; VHH; source: E. coli WK6, periplasmic extract, purified (HisTrap); not shown: His6, C-terminal, kept
Consider B6, for which the binding result in test [1] was “binds”; in test [5], “binds”; in test [3] it was “binds”; in test [6] it was “binds”; in [10], “binds”; in test [4], “no binding (tested: 50 nM)”. Further, the binding result in test [11] is on record as “binds”; in test [7], “binds”; in test [8] it was “no binding (tested: 50 nM)”; in [9] it was “binds”.

B7: Nb12 (VHH)
VHH: QVQLQESGGGLVQVGGSLRLSCAASGRTFSNYAMGWFRQAPGEEREFVAAISWSDNNTLYTDSVKGRFTISRDNAENTVYLQMNSLEPEDTAVYYCAAGRRPRLRVGLNEFDYWGQGTQVTVSS
notes: from an alpaca immunized with full-length VAR2CSA; pHEN6c vector; also called Nanobody 12; VHH; source: E. coli WK6, periplasmic extract, purified (HisTrap); not shown: His6, C-terminal, kept
In the case of B7, the binding result is “binds” in test [1]; “binds” in test [5]; “binds” in test [3]; “binds” in [6]; “no binding (tested: 50 nM)” in [4]; “binds” in test [7]. Also, the binding result was “no binding (tested: 50 nM)” in test [8] and “binds” in test [9].

B8: Nb01 (VHH)
VHH: QVQLQESGGGLVQAGGSLRLSCAASGRTFNSYVMGWFRQAPGKEREFVAAISWSGGNAYYADSVKGRFTISRDNAENTVYLLMNSLKPEDTAVYYCAAALTRLARNEYDYLGQGTQVTVSS
notes: from an alpaca immunized with full-length VAR2CSA; pHEN6c vector; also called Nanobody 01; VHH; source: E. coli WK6, periplasmic extract, purified (HisTrap); not shown: His6, C-terminal, kept
For the molecule B8, the binding result in [1] is listed as “binds”; in [5], “binds”; in test [3], “binds”; in [6], “binds”; in test [4], “no binding (tested: 50 nM)”; in test [7], “binds”. Further, the binding result in test [8] was “no binding (tested: 50 nM)”; in [9], “binds”.

B9: Nb04 (VHH)
VHH: QVQLQESGGGLAQPGGSLRLSCTASGRIYRMAWFRQAPGKERELVASITHIGATNYADSVKGRFTISRDNFKNTMYLQMNDLKPEDTAVYYCNAASSWGKGTQVTVSS
notes: from an alpaca immunized with full-length VAR2CSA; pHEN6c vector; also called Nanobody 04; VHH; source: E. coli WK6, periplasmic extract, purified (HisTrap); not shown: His6, C-terminal, kept
For the molecule B9, the binding result is given as “binds” in test [1], “binds” in test [2], “binds” in [3] and “no binding (tested: 50 nM)” in [4].

The values are drawn from publication PMC3897377, “Utilizing Nanobody Technology to Target Non-Immunodominant Domains of VAR2CSA” (PLoS ONE, 2014).
